We go through one sequence from US12269880B2, “LAG3 binding peptides” (Leidos, Inc., priority 2019, dated 2025).

Test [1] has as its target T1, soluble recombinant human LAG3 (Homo sapiens, UniProt P18627).
T1 construct: soluble recombinant human LAG3
T1 sequence (P18627 23-450 limits assumed): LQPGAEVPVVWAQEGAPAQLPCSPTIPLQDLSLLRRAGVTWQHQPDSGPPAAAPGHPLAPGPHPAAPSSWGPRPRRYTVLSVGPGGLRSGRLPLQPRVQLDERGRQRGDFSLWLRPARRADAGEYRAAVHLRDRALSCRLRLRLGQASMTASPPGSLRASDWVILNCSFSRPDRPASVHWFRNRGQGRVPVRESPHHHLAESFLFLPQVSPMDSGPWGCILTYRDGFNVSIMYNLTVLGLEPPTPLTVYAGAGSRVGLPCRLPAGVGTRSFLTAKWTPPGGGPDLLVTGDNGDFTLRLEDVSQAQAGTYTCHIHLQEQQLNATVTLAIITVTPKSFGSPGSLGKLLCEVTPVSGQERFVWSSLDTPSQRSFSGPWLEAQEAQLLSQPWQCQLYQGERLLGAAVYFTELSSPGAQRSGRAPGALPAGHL
The experiment in a line: Clonal phage ELISA after phage display bio-panning. It is filed as binding. From the text:
The TriCo-20™, TriCo-16™, Ph.D.-12™, and Ph.D. C7™ Phage Display Peptide Libraries (Creative Biolabs, 45-1 Ramsey Road, Shirley, NY 11967) were screened by performing several rounds of bio-panning to identify binders of soluble recombinant human LAG3.

Test [2] deals with interaction with LAG3 and its ligand MHC-II. Put plainly: Cell-based NFAT-luc2P luciferase reporter assay, LAG3 Jurkat / MHC-II Raji co-culture. More on the design: species or system human. Conditions: RLUs at 100 µM compared to RLUs at 0.64 µM. From the text: A cell-based reporter assay was used to assess whether binding of the seven peptides identified above was sufficient to block the interaction with LAG3 and its ligand MHC-II. The components of the assay include (1) a Jurkat T cell line that stably expresses human LAG3 and a stable NFAT-luc2P luciferase reporter, (2) a Raji cell line that expresses human MHC-II, and (3) a positive control anti-LAG3 antibody that blocks the interaction of LAG3 and MHC-II. In brief, Jurkat cells expressing LAG3 are stimulated with a T cell receptor (TCR) activator molecule, resulting in expression of luciferase. When the Jurkat cells are co-cultured with an a Raji cell line expressing the MHC-II molecule, the interaction of LAG3 on the surface of a Jurkat cell with MHC-II on the surface of a Raji cell inhibits T cell activation, leading to a reduction in luciferase expression. The addition of a neutralizing antibody against LAG3 blocks the inhibition signal and allows luciferase expression to proceed. BIO-GLO™ (Promega) was used to measure luciferase expression. The seven LAG3 peptides were tested at concentrations of 0, 0.64, 1.6, 4, 10, 25, & 100 µM.
Results of the assay testing the seven LAG3 peptides identified above and a negative control peptide ([…]; SEQ ID NO:9) are shown in FIG. 1B.

The target of the next test is T2, LAG3/MHC-II interaction (Homo sapiens, UniProt P18627).
T2 construct: purchased Cisbio US Inc
T2 sequence (P18627 23-450 limits assumed): T1 sequence (P18627 23-450 limits assumed)
Put plainly: HTRF LAG3/MHC-II binding assay (Cisbio). From the text:
FIG. 2 is a graph showing the results of a homogeneous time-resolved fluorescence (HTRF) assay for peptide LAG3-11. Reference Ab-LAG3 is an anti-LAG3 antibody. OVA, the ovalbumin (OVA) peptide (ISQAVHAAHAEINEAGR, SEQ ID NO:8). “HTRF ratio” is the emission at 665 nm (acceptor)/emission at 620 nm (donor) multiplied by a factor or 10^4.
A homogeneous time-resolved fluorescence (HTRF) LAG3/MHC-II binding assay (Cisbio US Inc.) was used to measure the interaction between MHC-II and LAG3 in the presence of peptides. In this assay, the interaction between Tag1-LAG3 and Tag2-MHC-II is detected by using anti-Tag1-Terbium (HTRF donor) and anti-Tag2-XL665 (HTRF acceptor). When the donor and acceptor antibodies are brought into close proximity due to LAG3 and MHC-II binding, excitation of the donor antibody triggers fluorescent resonance energy transfer (FRET) towards the acceptor antibody, which in turn emits specifically at 665 nm. This specific signal is directly proportional to the extent of LAG3/MHC-II interaction. Thus, an agent that blocks the interaction between LAG3 and MHC-II will cause a reduction in HTRF ratio.
An anti-human LAG3 antibody (Novoprotein #GMP-A092, Lot 0331158, 500 nM) was tested in the assay at an eleven-point, serially diluted semi-log dose response curve starting at 100 nM and served as a positive control. The ovalbumin peptide was used as a negative control. Peptides were reconstituted at a concentration of 20 mM in […] and tested at an eleven-point dose response curve starting at 100 µM followed by 4-fold dilutions. […]

Test [3] relates to human peripheral blood mononuclear cell (PBMC). The experiment in a line: Human PBMC-based recall assay (EBV and CMV viral-specific peptides). The format is cell-based. Conditions: seven days post-stimulation. As for the experimental part:
PBMCs were obtained from a human donor who had previously been identified as a positive responder to Epstein-Barr virus (EBV) and Cytomegalovirus (CMV) viral-specific peptides. 5×10^5 PBMCs in 200 μL of media were stimulated with EBV and CMV viral-specific peptides in the presence or absence of LAG3-11. Seven days post-stimulation, the percentage of virus-specific CD8+ T cells were identified via flow cytometry using MHC-I tetramers. Supernatants were also collected and the amount of […] determined via ELISA.

Another test addresses T3, human LAG3/FGL1 (Homo sapiens, UniProt P18627).
T3 construct: purchased BPS Bioscience
T3 sequence (P18627 23-450 limits assumed): T1 sequence (P18627 23-450 limits assumed)
Put plainly: Human LAG3/FGL1 TR-FRET binding assay (BPS Bioscience). On the procedure: The peptides were tested using a human LAG3/FGL1 TR-FRET binding assay (BPS Bioscience) carried out according to the manufacturer's instructions.
Peptide stocks of LAG3-11, LAG3-42, LAG3-48, LAG3-51, LAG3-54, LAG3-56, LAG3-60 and OVA were prepared at 1 mM followed by a 1:5 dilution in plate reactions. LAG3-11 and OVA were tested at 200, 50, 13, 3, 0.8, 0.2, 0.05, and 0.01 μM. The other peptides were tested at 200, 50, 13, and 3 μM. A neutralizing anti-human LAG3 antibody (BPS Bioscience Cat. #71219) was used as a positive control.
Reaction mixes were incubated 1 hr at RT before development. After development, plate was read in a Tecan M1000 TR-FRET instrument. Percent activity was calculated as follows: % Activity=100×[(sample−minimum)/(maximum−minimum)]

“And” between values parts separate entries of the source, which are not always exact repeats. Equal entries are not always repeated.

In the case of SAPWEPLHWPEDWWQGTGEW (LAG3-11 peptide), the “Clonal Phase ELISA coated signal” value in test [1] (coated) was determined as 0.271. Besides, in test [1] (uncoated (background)), the “Clonal Phase ELISA uncoated signal” value was 0.093. Also, the “fold inhibition (fold increase in luciferase activity)” value in test [2] is listed as “approximately 2.8 fold”. Besides, the HTRF ratio was 3213 and 3460 and 3458 with LAG3/MHC-II interaction (LOG [Compound] M tested for peptide −4, single replicates); 4749 and 5287 and 5014 with LAG3/MHC-II interaction (LOG [Compound] M tested for peptide −4.60206, single replicates); 6812 and 6892 and 6696 with LAG3/MHC-II interaction (LOG [Compound] M tested for peptide −5.20412, single replicates); 7774 and 8164 and 7993 with LAG3/MHC-II interaction (LOG [Compound] M tested for peptide −5.80618, single replicates); 8538 and 8718 and 8858 with LAG3/MHC-II interaction (LOG [Compound] M tested for peptide −6.40824); 8794 and 8729 and 8889 in the test with LAG3/MHC-II interaction (LOG [Compound] M tested for peptide −7.0103, single replicates). Also, the HTRF ratio with LAG3/MHC-II interaction (LOG [Compound] M tested for peptide −7.61236, single replicates) was 9090 and 9036 and 9329; in the test with LAG3/MHC-II interaction (LOG [Compound] M tested for peptide −8.21442, single replicates) it was 9012 and 9293 and 9067; with LAG3/MHC-II interaction (LOG [Compound] M tested for peptide −8.81648, single replicates) it was 8877 and 8955 and 8992; in the test with LAG3/MHC-II interaction (LOG [Compound] M tested for peptide −9.41854, single replicates), 8591 and 6950 and 8287; with LAG3/MHC-II interaction (LOG [Compound] M tested for peptide −10.0206), 8212 and 8748 and 8700; in the test with LAG3/MHC-II interaction (LOG [Compound] M tested for peptide −10.6227) it was 8886 and 8842 and 9097. The “disruption of LAG3 and MHC-II interaction” value in the test with LAG3/MHC-II interaction (four independent experiments) was “disrupts the interaction of LAG3 and MHC-II”. The “increase of IFN-7 secretion by human PBMCs” value in test [3] (relative to the viral-specific peptides alone, ELISA) is 3 fold. Besides, in test [3] (flow cytometry, MHC-I tetramers), the “increase in percentage of tetramer+ CD8 T cells” value is on record as around 2 fold. Besides, the “inhibition of the interaction between human LAG3 and FGL1” value with human LAG3/FGL1 is “inhibit the interaction between human LAG3 and FGL1”.
